Measurements: PMC3998727 (Nature medicine, 2012)

B1: BMP7: Bone morphogenetic protein–7, member of the TGF-β superfamily, natural ligand of Alk3 (protein, UniProt P18075 293-431, looked up)
Bone morphogenetic protein 7: STGSKQRSQNRSKTPKNQEALRMANVAENSSSDQRQACKKHELYVSFRDLGWQDWIIAPEGYAAYYCEGECAFPLNSYMNATNHAIVQTLVHFINPETVPKPCCAPTQLNAISVLYFDDSSNVILKKYRNMVVRACGCH

What was measured:
DN kidney [1] = experiment: Advanced diabetic nephropathy, captopril and THR–123 combination; assay type: in vivo, mice; settings: eight months DN
[2] = system: tubular epithelial cells (TECs; NP–1 cells); experiment: Hypoxia induced apoptosis of TECs; assay type: cell-based; settings: Annexin V; NP–1 cells in hypoxia
DN kidney [3] = experiment: Streptozotocin–induced diabetic nephropathy; assay type: in vivo, CD–1 mice
TECs (NP–1 cells) = experiment: Reversal of TGF-β and EGF induced EMT in TECs; assay type: cell-based; settings: TECs after 48 hours of incubation with TGF-β and EGF

Molecule	EMT program (DN kidney [1])	macrophage infiltration (DN kidney [1]; Mac–1)	hypoxia induced apoptosis of TECs [2]	mesangium expansion (DN kidney [3]; STZ–induced six month DN, BMP7 1–6 months, THR–123 5–6 months treatment)	induction of an EMT program (DN kidney [3]; six months DN)	renal dysfunction (blood urea nitrogen) (DN kidney [3]; six months DN)	macrophage infiltration (DN kidney [3]; six months DN, Mac–1, F4/80)	reversal of TGF-β–induced EMT (TECs (NP–1 cells))
C[C@H](CS)C(=O)N1CCC[C@H]1C(=O)O [CPR, captopril]	inhibited	inhibited macrophage infiltration						
B1			inhibited	inhibited mesangium expansion	inhibited induction of an EMT program	significantly reversed renal dysfunction	reduced macrophage infiltration	reversed
